According to the nanobody polyreactivity screen of Harvey et al. (2022):

Assay: yeast display, Sf9 membrane polyspecificity reagent, FACS + sequencing; frameworks hold sequencing errors
Summary of the method: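 A nanobody's polyreactivity label depends on the gate it was sorted from. Yeast display cells were stained with 10% biotinylated, detergent-solubilized Sf9 membrane reagent for 1 hour at 4 °C, enriched on streptavidin microbeads and sorted by FACS. The low and high (top ~1%) gates were set on anti-HA fluorescence for expression and streptavidin fluorescence for reagent binding.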

Sequence	polyreactivity (PSR sort gate)
QVQRVESGGGLVQAGGSLRLSCAASGNTFTVNAMGWYRQAPGKERELVAAINYSGGSTYYADSVKGRFTISRDNAKNTVYLQKNSLKPEDTAVYYCAASPDELLYEMYYWGQGTQVTVSS	low polyreactivity
QFQLVESGGGLVQAGGSLRLSCAASGYIFGRYAMGWYRQPPGKERELVAAISSTGDSTYYADSVKGRFTISRDYAKNTVYLQMNSQKPEDTAVYYCNAVVPRYSYGRYYYWGQGTQVTVSS	high polyreactivity
QVQLVESGGGLVQAGGSLRLTCAASGRTFYYYAMGWYRQAPGKESELVAAINTRGVSTYYADSVKGRFTISRDNAKNTVYLQMNSLKPEDTAVYYCNKGFSYGRDYWGQGTQVTVSS	high polyreactivity
QVQLVESGGGLVHAGGSLRLTCAASGSISSFYAMGWYRQEPGKERELVAGITSGGSTNYADSVKGRFTISRDNAKNTVYLQMNSLKAEDTAVYYCAAVYKCAGTHFDVFVKEFDYWGQGTQVTVSS	low polyreactivity
QVHLQEIGGGLVQAGGSLRQSCAASGTISDSGLMGWYRQAPGKERELVAGISSGGITNYADSVKGRFTISRDNAKNTVYLQMNSLKPEDTAVYWGQGTQVTVSS	low polyreactivity
QVQLVDSGGGLVQAGGSLRLSCAASGLIFLYYAMGWYRQAPGKERELVAAISSSGSTYYADSVKGRFTISRDNAKNTVYLQMNSLKPEDTAVYYCAARWTRNYGMNYWGQGTQVTVSS	high polyreactivity
QVQLVESGGGLVQAGGSLRLSCAASGFIFKFYTMGWYRQAPGKERELVAVISGSGGRTYYADSVKGRFTISRDNAKNTVYLQMNSLKPEDTAVYYCARYGPYQSSYHYDYWGQGTQVTVSS	high polyreactivity
QVQLVESAGGLVQAGGSLRLSCAASGNTFHSNALGWYRQAPGKERELVAAITPSDGDTYYADSVKGRFTISRDNAKNTVYLQMNSLKPEDTAVYYCAAEDDPGEYEYWGQGTQVTESS	low polyreactivity
QVQLVESGGGLVHAGGSLRLSCAASGRTLKYYAMGWYRQAPGKERELVAAISGGDSTYYADSVKGRFTISRDNAKNTVYLQMNSLKPEDTAVYYCNARRFIWWYPYLRDYWGQGTQVTVSS	high polyreactivity
QVQLVESGGGLVQAGGSLRLSCAASGFTVGYAMGWYRQAPGKEREFVAAITRGGGTRTSYADSVKGRFTISRDNAKNTVYLQMNSLKPEDTAVSYCAARRWWSPRTQYDYWGQGTQVTVSS	high polyreactivity
QVQLVESGGGLVQAGGSLRLSCAASGYIFSLYAMGWYRQAPGKERELVADITTSAGSTYYADSVKGRFTISRDNAKNTVYLQMNSLKPEDTAVYYCAADVYGHTYYDYDYWGQGTQVTVSS	low polyreactivity
QVQLVESGGGLVQAGGSLRLSCAASGSIFVWNAMGWYRQAPGKERELVAAITNICGRTYYADSVKGRFTISRDNAKNTVYLQMNSLKPEDTAVYYCNTDRVSRLGWSTTSDSWGQGTQVTVSS	high polyreactivity
RVQLVESGGGLVQAGGSLRLSCAASGFTFRDYAMGWYRQAPGKERELVARIRIRDSNTYYADSVKGRFTISRDNAKNTVYLQMNSLKPEDTAVYYCAVVANYVYSKYDYWGQGTQVTVSS	low polyreactivity
QVQLVESGGGLVQAGGSLRLSCAASGLTFYQYAMGWYRQATGKETELVAAITSAGITYADSVKGRFTISRDNAKNTVYLQMNSLKPEDTAVYYCAKDDYFSYGYVEFDYWGQGTQVTVSS	low polyreactivity
QVQLVESGGGLVQAGGSLRLSCAASGRIFNYYAMRWYRQAPGKETELVAAITSSGGSTYYADSVKGRFTISRDNAKNTVYLQMNSLKPEDTAVYYCAAVSTATIRGGYWGQGTQVTVSS	high polyreactivity
KVQIVESGGGLVQAGGSLRLSCAASGRTFVVNGMGRYRQAPGKDRELVAAINTSGGSTHYADSVKGRITISRDNAKNTVYLQMNILKPEDTAVYYCAAVGYWRDYSGYWDYYYIYDYWGQGTQVNVSS	low polyreactivity
QVQLVESGGGLVQAGGRLRLTCAASGCTFFTNSMGWYRQAPGKERELFGAITVSGSTYYADSVKGRFTFSRDNAKNTVYLQMNSLNPEDTAVYYCAAVFWRRQYGYYIFTTLDYWGHGTQVTVSS	high polyreactivity
QVQLVESGGGLVHAGGSLRLSCAAWSIFYLNAMGWYRQAPGKERELVAAISSAGSTYYADSVKGRFTISRDNAKNTVYLQMNSLKPEDTAVYYCAAYWYDSPGVTEIWYDYWGQGTQVTVSS	low polyreactivity
QVQLVESGGGVVQAGGSLRLSCAASGRIFERNAMGSYRQSPVKERELVARITSGGGTYYADSVKGRFTISRDNAKNTVYLQMNSLKPEDSAVYYSAVQYLYRKYRRYDYWGLGTQVTVSS	high polyreactivity
QVQLVESGGGLVQAGGSLRLSCAASGSTFAWYAMGWYRQAPGKERELVAAISRTGRTYYADSVKGRFTISRDNAKNTVYLQMNSLKPEDTAVYYCAARIERFYRDQRYDYWGQGTQVTVSS	high polyreactivity
QVQLVESGGGLVHAGGSLRLSCAASGSIFNVYAMGWYRQAPGKERELVAAITQSGGSTYYADSVKGRFTISRDNAKNTVYLQMNSLKPEDTAVSYCAADNRYTYYYWGQCTQVTVSS	low polyreactivity
QVQLVESGGGLVQAGGSLRLSCAASGIIFYYNAMGWYRQAPGKERELVAAISWSGGSTYYADSVKGRFTISRDYAKNSVYLQMNSLKTEDTAVYYCAADYYWRVHYGYWGQGTQVTVSS	high polyreactivity

Sequence	polyreactivity (PSR sort gate)
QVQLVESGGGLVQAGGSLRLSCAASGSTFPKNVMGWYRQAPGKERELVAAINYSGTSTYYADSVKGRFTISRDNAKNTVYLQMNSLKPEDTAVYYCAARFPLVRYNYWGQGTQVTVSS	high polyreactivity
QVQLVESGGGLVQAGGSLRLSCAASGRIFGPYTMGWYRQAPGKERELVAAITGRVVSTYYADSVKGRFTISRDNAKNTVYLQMNSLKPEDTAVYYCAKASHYWSQRFGYWGQGTQVTVSS	high polyreactivity
QVQLVESGGGLVQAGGSLRLSCAASGRIFAYYAMGWYRQAPGKERELVAAITRSGARTYYADSVKGRFTISRDNAKNTVYLQMNSLKPEDTAVYYCAAEGVRIGTRYDYWGQGTQVTVSS	high polyreactivity
KVQLVESGGGLVQAGGSLRLSCAASGGIFYYYAMGWYRQAPGKERELVAAISSGGGTNYADSVKGRFTISRDNAKNTVYLQMNSVKPEDTAVYYCAADQGRDTGYDYWGQGTQVTVSS	low polyreactivity
QVQLVESGGGLVKAGGSLRLSCAASGSIFRYYAMGWYRQAPGKERELVASITNGGSTNYADSVKGRFTISRDNAKNTVYLQMNSLKPEDTAVYYCAARYLYYTPPPRRYYYWAQGTQVTVSS	high polyreactivity
QVQLVESGGGLVQAGGSLRLSCAASGRTFNFYAMGWYRQAPGKERELVATISGGVSTYYADSVKGRFTISRDNAKNTVYLQMNSLKPEDTAVYYCAKDSGYPQWDLDYWGQGTQVTVSS	high polyreactivity
HVQLVESGGGLVQAGGSLRLSCAASGSTFTRYVMGWYRQAPGKERELVAAISSGVSTYYADSVKGRFTISRDNAKNSVYLQMNSLKPEDTAVYYCDANRYRAREYKYWGQGTQVTVSS	high polyreactivity
QVQLVESGGGLVQAGGSLRLSCAASGGTSAVYAMGWYRQAPGKERELVAAISSDGSTNYADSVKGRFTISRDNAKNTVYLQMNSLKPEDTAVYYCAVDFSTYEWSGHITRASGSYDYWGQGTQVTVSS	low polyreactivity
QVQLVESGGGLVQAGGSLRLSCAASGRTFGPNVMGWYIQAPRKERELVAAITSGGTTYYADSVKGRFTISRDNANNTVYLLMNSLKPEDTAVYYCAKVLRGGRYDYWGQGTQVTVSS	low polyreactivity
QVQLVESGGGLVQAGGRLRLSCAASGRIFSYAMGWYRHAPGNERELVGGISRSGGSTYYADSVKGRFTISRDNAKNTVYLQMNSQKPVDTAVYYCAADSSLSASEYDSWGQGTQVTVSS	high polyreactivity
QVQLVESGGGLVQAGGSLRLSCAASGYIFDVYDMGWYRQAPGKERELVAAITDYADSVKGRFTISRDNAKNTVYLQMNSLKPEDTAVYYCAADTDVLKGTTGFEYWGQGTQVTVSS	low polyreactivity
QVQLVESGGGLVQAGGSLRLSCAASGSTLKYNALGWYRQAPGKERELVAAISTSGGNTYYADSVKGRFTISRDYAKNTVYLQMNTLKPEDTAVYYCAKVLGFYYYDYYTPFARGYWGQGTQVTVSS	low polyreactivity
QVQLVESGGGLVQAGGSLRLSCAASGSTFDYYDMGWYRPAPGKERELVAAISSGGDSTYYADSVKGRFTISRDNAKNTVYLQFNSLKPEDSAVYYCAAPDESYSVWRLDGLDYWGQGTQVTVSS	high polyreactivity
QVQLVESGGGLVQAGGSLRLSCAASGLTFPIYAMGWYRQAPGKEREYVAVITTSGGSTYYADSVKGRFTISRDNAKNTVYLQMNSLKPEDTAVYYCNARGIRHYYWGQGTQVTVSS	high polyreactivity
QVQLVESGGGLVQAGGSLRLSCAASGRIFLWNAMGWYRPAPGKERELVAGISWRGSSTYYADSVKGRFTISRDNAKNTVYLQMNSLKPEDTAVYYCAARTRGGRGYGMYYWGQGTQVTVSS	high polyreactivity
QVQLVESGGGLVQAGGSLRLSSAASGIICAIYAMGWYRQAPGKERELVAAITWRGGSTYYADSVKGRFTISRDNAKNSVYFQKNRLKPEDTAVYYCAAVTKSLYGYDYWGQGTQVNVSS	low polyreactivity
QVQLVESGGGLVQAGGSLRLSSAASGNTIYGYAMGWYRQAPGNERELVASITLSGDSTYYADSVKGRFTISRDNAKNTVYLQMNSLKPEDTAVYYCAGVYTYPLGYYHYTYDYWGQGTQVTVSS	low polyreactivity
QVQLVESGGGLVQAGGSLSLSCAASGSTFYNYAMGWYRQAPGKERELVASITWNGGSTYYADSVKGRFTISRDNAKNTVYLQMNSLKPEDTAVYYCAADWTWTYPYDYWGQGTQVTVSS	low polyreactivity
QVQLVESGGGLVQAGGSLRLSCAASGRIFRYSAMGWYRQAPGKERELVAAISSDGSTDYADSVKGRFTISRDNAKNTVYLQMNSLKPEDTAVYYCAASVVSYGHDYWGQGTQVTVSS	low polyreactivity
QVQLVESGGGLVQAGGSLRLSCAASGSIFTYYVMGWYRQAPGKERELVAAITISGGSTYYADSVKGRFTISRDNAKNTVYLQMNRLNPEDTAVYYCAAEEVYYEADGFLYSYDYWGKGTQVTVSS	high polyreactivity
QVQLVESGGGLVQAGGSLRLSCAASGRTFTYNAMGWYRQAPGKERELVASIRRSGTITYYADSVKGRFTISRDNAKNTVYLQMNSLKPEDTAVYYCAARYPWYRYYSWGQGTQVTVSS	high polyreactivity
